{
  "source": "the supplement of paper PMC6755084",
  "parents": {"B1": {"name": "minF1; a variant is named by its letters at N, in order (parent)", "chain": "GAGACCGCAACTGAAAAGTTGTTNNNNAANNNNNGGNTNAATTTCTGCACGTAGAAGCAAAAGGC"}},
  "data": [
    {"variants_of": "B1", "experiment": "fraction ligated after 30 min (ligated reads / total reads); higher = more ligase activity", "details": "with F1*subA RNA substrate (template-directed ligation), 42 °C", "procedure,_shortened": "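Ligated and unligated RNAs from a pool of minimized ligase ribozyme variants were separated on gels, reverse transcribed with barcoded primers and sequenced on a MiSeq. Core bases needed quality ≥30 to pass the filter. Each variant's fraction ligated was then taken as ligated reads over total reads.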", "values": [
      {"variant": "GAGACCGCAACTGAAAAGTTGTTATCGAAATGATGGGTTAATTTCTGCACGTAGAAGCAAAAGGC", "note": "[ATCGATGATGT]", "fraction ligated": 0.00439},
      {"variant": "GAGACCGCAACTGAAAAGTTGTTATCGAAATGATGGGTTGATTTCTGCACGTAGAAGCAAAAGGC", "note": "[ATCGATGATGT A40G]", "fraction ligated": 0.0304},
      {"variant": "GAGACCGCAACTGAAAAGTTGTTATCGAATGGAGGGTTGAATTTCTGCACGTAGAAGCAAAAGGC", "note": "[ATCGTGGAGTG]", "fraction ligated": 0.00282},
      {"variant": "GAGACCGCAACTGAAAAGTTGTTATCGAATGATGGGTTGAATTTCTGCACGTAGAAGCAAAAGGC", "note": "[ATCGTGATGTG]", "fraction ligated": 0.00711},
      {"variant": "GAGACCGCAACTGAAAAGTTGTTATCGAAATGGGGGTTGAATTTCTGCACGTAGAAGCAAAAGGC", "note": "[ATCGATGGGTG]", "fraction ligated": 0},
      {"variant": "GAGACCGCAACTGAAAAGTTGTTATCGAAAGGATGGGTTGATTTCTGCACGTAGAAGCAAAAGGC", "note": "[ATCGAGGATGT A40G]", "fraction ligated": 0.0171},
      {"variant": "GAGACCGCAACTGAAAAGTTGTTATCGAATGGATGGGTTGATTTCTGCACGTAGAAGCAAAAGGC", "note": "[ATCGTGGATGT A40G]", "fraction ligated": 0.0919},
      {"variant": "GAGACCGCAACTGAAAAGTTGTTATCAGATGGTGGGTTGAATTTCTGCACGTAGAAGCAAAAGGC", "note": "[ATCATGGTGTG A28G]", "fraction ligated": 0.00296},
      {"variant": "GAGACCGCAACTGAAAAGTTGTTATCGAAATGGATGGTTGATTTCTGCACGTAGAAGCAAAAGGC", "note": "[ATCGATGGAGT G35T A40G]", "fraction ligated": 0.0726},
      {"variant": "GAGACCGCAACTGAAAAGTTGTTATCGAATGGATGGTTGAATTTCTGCACGTAGAAGCAAAAGGC", "note": "[ATCGTGGATTG]", "fraction ligated": 0.0062},
      {"variant": "GAGACCGCAACTGAAAAGTTGTTATCGAAATGTGGGTTGAATTTCTGCACGTAGAAGCAAAAGGC", "note": "[ATCGATGTGTG]", "fraction ligated": 0.00321},
      {"variant": "GAGACCGCAACTGAAAAGTTGTTATCGAAATGGTGGTTGAATTTCTGCACGTAGAAGCAAAAGGC", "note": "[ATCGATGGTTG]", "fraction ligated": 0.00328},
      {"variant": "GAGACCGCAACTGAAAAGTTGTTATCGAAATGGAGGGTTAATTTCTGCACGTAGAAGCAAAAGGC", "note": "[ATCGATGGAGT]", "fraction ligated": 0.00434},
      {"variant": "GAGACCGCAACTGAAAAGTTGTTATCGAAAGGAGGGTTGAATTTCTGCACGTAGAAGCAAAAGGC", "note": "[ATCGAGGAGTG]", "fraction ligated": 0.00378},
      {"variant": "GAGACCGCAACTGAAAAGTTGTTATGAAATGGTGGGTTGAATTTCTGCACGTAGAAGCAAAAGGC", "note": "[ATGATGGTGTG]", "fraction ligated": 0.00304},
      {"variant": "GAGACCGCAACTGAAAAGTTGTTATGAAAGGATGGGTTGAATTTCTGCACGTAGAAGCAAAAGGC", "note": "[ATGAGGATGTG]", "fraction ligated": 0.00387},
      {"variant": "GAGACCGCAACTGAAAAGTTGTTATCGAAATGAGGGTTGAATTTCTGCACGTAGAAGCAAAAGGC", "note": "[ATCGATGAGTG]", "fraction ligated": 0.00373},
      {"variant": "GAGACCGCAACTGAAAAGTTGTTATCGAAAGATGGGTTGAATTTCTGCACGTAGAAGCAAAAGGC", "note": "[ATCGAGATGTG]", "fraction ligated": 0.00673},
      {"variant": "GAGACCGCAACTGAAAAGTTGTTATGAAATGGATGGTTGAATTTCTGCACGTAGAAGCAAAAGGC", "note": "[ATGATGGATTG]", "fraction ligated": 0.0074},
      {"variant": "GAGACCGCAACTGAAAAGTTGTTATCGAAATGGAGGGTTGATTTCTGCACGTAGAAGCAAAAGGC", "note": "[ATCGATGGAGT A40G]", "fraction ligated": 0.00946},
      {"variant": "GAGACCGCAACTGAAAAGTTGTTATCGAAGGATGGGTTGAATTTCTGCACGTAGAAGCAAAAGGC", "note": "[ATCGGGATGTG]", "fraction ligated": 0.00497},
      {"variant": "GAGACCGCAACTGAAAAGTTGTTATCGAAATGATGGTTGAATTTCTGCACGTAGAAGCAAAAGGC", "note": "[ATCGATGATTG]", "fraction ligated": 0.00246},
      {"variant": "GAGACCGCAACTGAAAAGTTGTTATCGAAAGGTGGGTTGAATTTCTGCACGTAGAAGCAAAAGGC", "note": "[ATCGAGGTGTG]", "fraction ligated": 0.00503},
      {"variant": "GAGACCGCAACTGAAAAGTTGTTATCGAAATGGATGGGTTATTTCTGCACGTAGAAGCAAAAGGC", "note": "[ATCGATGGAGT G35T T38G A40T]", "fraction ligated": 0.0031},
      {"variant": "GAGACCGCAACTGAAAAGTTGTTATGAAATGATGGGTTGAATTTCTGCACGTAGAAGCAAAAGGC", "note": "[ATGATGATGTG]", "fraction ligated": 0.00356},
      {"variant": "GAGACCGCAACTGAAAAGTTGTTATCGAAAGGATGGGTTAATTTCTGCACGTAGAAGCAAAAGGC", "note": "[ATCGAGGATGT]", "fraction ligated": 0.004},
      {"variant": "GAGACCGCAACTGAAAAGTTGTTATGAAATGGAGGGTTGAATTTCTGCACGTAGAAGCAAAAGGC", "note": "[ATGATGGAGTG]", "fraction ligated": 0.00146},
      {"variant": "GAGACCGCAACTGAAAAGTTGTTATCGAATGGTGGGTTGAATTTCTGCACGTAGAAGCAAAAGGC", "note": "[ATCGTGGTGTG]", "fraction ligated": 0.00665},
      {"variant": "GAGACCGCAACTGAAAAGTTGTTATCGAATGGATGGGTTAATTTCTGCACGTAGAAGCAAAAGGC", "note": "[ATCGTGGATGT]", "fraction ligated": 0.00561},
      {"variant": "GAGACCGCAACTGAAAAGTTGTTATCGAAATGGTGGGTTGATTTCTGCACGTAGAAGCAAAAGGC", "note": "[ATCGATGGTGT A40G]", "fraction ligated": 0.0134},
      {"variant": "GAGACCGCAACTGAAAAGTTGTTATGAAATGGATGGGTTAATTTCTGCACGTAGAAGCAAAAGGC", "note": "[ATGATGGATGT]", "fraction ligated": 0.00269},
      {"variant": "GAGACCGCAACTGAAAAGTTGTTATCGAAATGGAGGTTGAATTTCTGCACGTAGAAGCAAAAGGC", "note": "[ATCGATGGATG]", "fraction ligated": 0.00346},
      {"variant": "GAGACCGCAACTGAAAAGTTGTTATCGAAAGGATGGTTGAATTTCTGCACGTAGAAGCAAAAGGC", "note": "[ATCGAGGATTG]", "fraction ligated": 0.00198},
      {"variant": "GAGACCGCAACTGAAAAGTTGTTATGAAATGGATGGGTTGATTTCTGCACGTAGAAGCAAAAGGC", "note": "[ATGATGGATGT A40G]", "fraction ligated": 0.0235},
      {"variant": "GAGACCGCAACTGAAAAGTTGTTATCAAATGGTGGGTTGAATTTCTGCACGTAGAAGCAAAAGGC", "note": "[ATCATGGTGTG]", "fraction ligated": 0.00812},
      {"variant": "GAGACCGCAACTGAAAAGTTGTTATCGAAATGGATGGGTTGTTTCTGCACGTAGAAGCAAAAGGC", "note": "[ATCGATGGAGT G35T T38G A40T A41G]", "fraction ligated": 0.00105},
      {"variant": "GAGACCGCAACTGAAAAGTTGTTATCGAAATATGGGTTGAATTTCTGCACGTAGAAGCAAAAGGC", "note": "[ATCGATATGTG]", "fraction ligated": 0.00384},
      {"variant": "GAGACCGCAACTGAAAAGTTGTTATCGATGGATGGGTTGAATTTCTGCACGTAGAAGCAAAAGGC", "note": "[ATCGGGATGTG A29T]", "fraction ligated": 0.045},
      {"variant": "GAGACCGCAACTGAAAAGTTGTTATCGAAATGGATGGTTAATTTCTGCACGTAGAAGCAAAAGGC", "note": "[ATCGATGGAGT G35T]", "fraction ligated": 0.0345},
      {"variant": "GAGACCGCAACTGAAAAGTTGTTATCGAAATGGTGGGTTAATTTCTGCACGTAGAAGCAAAAGGC", "note": "[ATCGATGGTGT]", "fraction ligated": 0.00463},
      {"variant": "GAGACCGCAACTGAAAAGTTGTTATGAATGGATGGGTTGAATTTCTGCACGTAGAAGCAAAAGGC", "note": "[ATGAGGATGTG A29T]", "fraction ligated": 0.0247}
    ]}
  ]
}
